Numbering of substitutions follows the chain as printed.

Sequences and labels used below:
B1: cr572 (nucleic acid)
guide: GTTTAAGAGCTAAGCTGGAAACAGCATAGCAAGTTTAAATAACCGAACTCGGTTATCAACTTGAAAAAGTGGCACCGAGTCGGTGCT
modifications: listed as DNA, chemistry not fully specified
B2: cr326 (nucleic acid)
guide: B1 guide with T34C, C44G, G45C, A46T, C48G
modifications: listed as DNA, chemistry not fully specified
B3: cr975 (nucleic acid)
guide: B1 guide with G33C, A42T, C43G, C44G, G45C, A46T, C48G, G51C
modifications: listed as DNA, chemistry not fully specified
B4: cr751 (nucleic acid)
guide: B1 guide with A28C, G33C, C43G, C44G, G45C, A46T, C48G, G51C, G52T
modifications: listed as DNA, chemistry not fully specified
B5: cr921 (nucleic acid)
guide: B1 guide with G33A, T34G, C43G, C44G, G45C, A46T, C48G, G51C
modifications: listed as DNA, chemistry not fully specified
B6: cr608 (nucleic acid)
guide: B1 guide with G33C, C43G, C44G, A46T, G51C
modifications: listed as DNA, chemistry not fully specified
B7: cr903 (nucleic acid)
guide: B1 guide with C43G, C44G, G45C, A46T, C48G, G51C, G52C, G79A
modifications: listed as DNA, chemistry not fully specified
B8: cr564 (nucleic acid)
guide: B1 guide with T34G, C43G, C44G, G45C, A46T, C48G, G51C, C75G, G83C
modifications: listed as DNA, chemistry not fully specified
B9: cr930 (nucleic acid)
guide: B1 guide with A32T, C43G, C44G, G45C, A46T, C48G, T49G, G51C, C57T
modifications: listed as DNA, chemistry not fully specified
B10: cr093 (nucleic acid)
guide: B1 guide with A5C, A6G, C43G, C44G, G45C, A46T, C48G, G51C
modifications: listed as DNA, chemistry not fully specified
B11: cr629 (nucleic acid)
guide: B1 guide with G33C, C43G, C44G, G45C, A46T, C48G, G51C, C60A, G69T
modifications: listed as DNA, chemistry not fully specified
B12: cr497 (nucleic acid)
guide: B1 guide with C43G, C44G, G45C, A46T, C48G, G51C, A65G, C73A, G85T
modifications: listed as DNA, chemistry not fully specified
B13: cr350 (nucleic acid)
guide: B1 guide with T34C, C43T, C44G, G45C, A46T, C48G, G51A
modifications: listed as DNA, chemistry not fully specified
B14: cr083 (nucleic acid)
guide: B1 guide with T3G, A5G, C43G, C44G, G45C, A46T, C48G, G51C
modifications: listed as DNA, chemistry not fully specified
B15: cr039 (nucleic acid)
guide: B1 guide with T2A, A6T, C43G, C44G, G45C, A46T, C48G, G51C
modifications: listed as DNA, chemistry not fully specified
B16: cr787 (nucleic acid)
guide: B1 guide with G33C, C44G, G45C, A46T, C48G
modifications: listed as DNA, chemistry not fully specified
B17: cr810 (nucleic acid)
guide: B1 guide with T34G, C43G, C44G, G45C, A46T, C48G, G51C, G77C, C81G
modifications: listed as DNA, chemistry not fully specified
B18: cr129 (nucleic acid)
guide: B1 guide with C43G, C44G, G45C, A46T, C48G, G51C, T61G, A65G, A68C
modifications: listed as DNA, chemistry not fully specified
B19: cr828 (nucleic acid)
guide: B1 guide with A32G, C43G, C44G, G45C, A46T, C48G, G51C
modifications: listed as DNA, chemistry not fully specified
B20: cr874 (nucleic acid)
guide: B1 guide with T34G, C43T, C44G, G45C, A46T, C48G, G51A
modifications: listed as DNA, chemistry not fully specified
B21: cr244 (nucleic acid)
guide: B1 guide with T34G, C43G, C44G, A46T, G51C
modifications: listed as DNA, chemistry not fully specified
B22: cr579 (nucleic acid)
guide: B1 guide with C43G, C44G, G45C, A46T, C48G, G51C, G52C, T53A
modifications: listed as DNA, chemistry not fully specified
B23: cr735 (nucleic acid)
guide: B1 guide with G33C, C43G, C44G, G45C, A46T, C48G, G51C, G71C
modifications: listed as DNA, chemistry not fully specified
B24: cr178 (nucleic acid)
guide: B1 guide with G33T, A41G, C43G, C44G, G45C, A46T, C48G, G51C, A58G
modifications: listed as DNA, chemistry not fully specified
B25: cr912 (nucleic acid)
guide: B1 guide with T34C, A41G, C43G, C44G, G45C, A46T, C48G, G51C, T53G
modifications: listed as DNA, chemistry not fully specified
B26: cr106 (nucleic acid)
guide: B1 guide with T34G, C43G, C44T, G45C, A46T, C48G, C50A, G51C
modifications: listed as DNA, chemistry not fully specified
B27: cr535 (nucleic acid)
guide: B1 guide with C43G, C44G, G45C, A46T, C48G, G51A
modifications: listed as DNA, chemistry not fully specified
B28: cr099 (nucleic acid)
guide: B1 guide with G33T, C43G, C44G, G45C, A46T, C48G, T49G, G51C
modifications: listed as DNA, chemistry not fully specified
B29: cr939 (nucleic acid)
guide: B1 guide with G33C, C43G, C44G, G45C, C48G, G51C, G52C
modifications: listed as DNA, chemistry not fully specified
B30: cr035 (nucleic acid)
guide: B1 guide with T4G, A6T, C43G, C44G, G45C, A46T, C48G, G51C
modifications: listed as DNA, chemistry not fully specified
B31: cr355 (nucleic acid)
guide: B1 guide with T34G, C43G, C44G, G45C, A46T, C48G, G51C, T62A, A67T
modifications: listed as DNA, chemistry not fully specified
B32: cr817 (nucleic acid)
guide: B1 guide with T34G, A42G, C43G, C44G, G45C, A46T, C48G, G51C, A65T
modifications: listed as DNA, chemistry not fully specified
B33: cr143 (nucleic acid)
guide: B1 guide with G33C, C43G, C44A, G45C, A46T, C48G, C50T, G51C
modifications: listed as DNA, chemistry not fully specified
B34: cr225 (nucleic acid)
guide: B1 guide with C43T, C44G, G45C, A46T, C48T, G51C
modifications: listed as DNA, chemistry not fully specified
B35: cr149 (nucleic acid)
guide: B1 guide with C44G, G45C, A46T, C48G, G72T, C86A
modifications: listed as DNA, chemistry not fully specified
B36: cr786 (nucleic acid)
guide: B1 guide with A41T, C43G, C44G, G45C, A46T, C48G, G51C, A55G, C57G
modifications: listed as DNA, chemistry not fully specified
B37: cr431 (nucleic acid)
guide: B1 guide with T34G, C43G, C44G, G45C, A46T, C48G, G51C, A65G, A78C
modifications: listed as DNA, chemistry not fully specified
B38: cr637 (nucleic acid)
guide: B1 guide with G29T, T34A, C43G, C44G, G45C, A46T, C48G, G51C, A65G
modifications: listed as DNA, chemistry not fully specified
B39: cr657 (nucleic acid)
guide: B1 guide with C43G, C44G, G45C, A46T, C48G, C50G, G51C
modifications: listed as DNA, chemistry not fully specified

In the data set the test system is K562 CRISPRi cells. Kind of data set: Constant region variant library pooled growth screen, K562. Type of data set: cell-based, human. The settings on record: sgRNA constant region variants; activity relative to the original, un-modified constant region cr995. Summed up:
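Growth screens in K562 CRISPRi cells were harvested 4-8 days post-selection at >2000× library coverage. Each variant's phenotype was referenced to the unmodified constant region with the same targeting sequence.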
Molecule B1 yielded a Mean relative activity of 0.002782.

Take B2: the Mean relative activity is recorded as −0.001062.

With B3, the Mean relative activity is 0.002152.

Take B4: the Mean relative activity is listed as −0.000557. To B5 belongs −0.002203; to B6, 0.002568; to B7, 0.00222. With B8 the figure was −0.001952; with B9, 0.001721. With B10 the figure was 0.001456; with B11, −5.97E−5; with B12, 1.028.

As to B13, the Mean relative activity was found to be 0.001423. With B14 the figure was 0.001403. With B15 the figure was −0.0006181; with B16, 0.0008483; with B17, 0.002026. With B18 the figure was 1.029. Molecule B19 had a Mean relative activity of 1.028. With B20 the figure was 0.002144; with B21, 0.00149.

Molecule B22 yielded a Mean relative activity of −0.000418. With B23 the figure was 0.002596; with B24, −0.0008744.

B25 showed a Mean relative activity of −1.05E−05. With B26 the figure was 0.001355; with B27, −0.0004281. To B28 belongs 0.0005052; to B29, 4.94E−05. B30 gave a Mean relative activity of 0.0006927. With B31 the figure was 0.001771; with B32, −0.002514. With B33 the figure was 0.001524. To B34 belongs 0.002658; to B35, 0.00167. Consider B36, for which the Mean relative activity stood at 0.001749. To B37 belongs −0.0002713. As for B38, the Mean relative activity is given as −0.001265.

Molecule B39 displayed a Mean relative activity of 0.002604.
